Measurements: patent US20100160262

Target: enzymatically [3H] acetylated histone H3 peptide (amino acids 1-24), P68431

B1: human SIRT1 with a C-terminal FLAG tag (protein)
chain: MADEAALALQPGGSPSAAGADREAASSPAGEPLRKRPRRDGPGLERSPGEPGGAAPEREVPAAARGCPGAAAAALWREAEAEAAAAGGEQEAQATAAAGEGDNGPGLQGPSREPPLADNLYDEDDDDEGEEEEEAAAAAIGYRDNLLFGDEIITNGFHSCESDEEDRASHASSSDWTPRPRIGPYTFVQQHLMIGTDPRTILKDLLPETIPPPELDDMTLWQIVINILSEPPKRKKRKDINTIEDAVKLLQECKKIIVLTGAGVSVSCGIPDFRSRDGIYARLAVDFPDLPDPQAMFDIEYFRKDPRPFFKFAKEIYPGQFQPSLCHKFIALSDKEGKLLRNYTQNIDTLEQVAGIQRIIQCHGSFATASCLICKYKVDCEAVRGDIFNQVVPRCPRCPADEPLAIMKPEIVFFGENLPEQFHRAMKYDKDEVDLLIVIGSSLKVRPVALIPSSIPHEVPQILINREPLPHLHFDVELLGDCDVIINELCHRLGGEYAKLCCNPVKLSEITEKPPRTQKELAYLSELPPTPLHVSEDSSSPERTSPPDSSVIVTLLDQAAKSNDDLDVSESKGCMEEKPQEVQTSRNVESIAEQMENPDLKNVGSSTGEKNERTSVAGTVRKCWPNRVAKEQISRRLDGNQYLFLPPNRYIFHGAEVYSDSEDDVLSSSSCGSNSDSGTCQSPSLEEPMEDESEIEEFYNGLEDEPDVPERAGGAGFGTDGDDQEAINEAISVKQEVTDMNYPSNKS
standard histone deacetylase assay (radioactive, H3 peptide substrate): These enzymes also deacetylate histones as determined in a standard histone deacetylase assay
